Biological target: T1, human endogenous retrovirus-E (HERV-E); CT-RCC-1 peptide peptide on HLA-A11 (human)
T1 peptide: ATWLGSKTWK
Assay: multimer staining

B1: HLA-A11 restricted HERV-E TCR (TCR, V domains shown)
Valpha: GIQVEQSPPDLILQEGANSTLRCNFSDSVNNLQWFHQNPWGQLINLFYIPSGTKQNGRLSATTVATERYSLLYISSSQTTDSGVYFCAVRGGADGLTFGKGTHLIIQP
Vbeta: DTEVTQTPKHLVMGMTNKKSLKCEQHMGHRAMYWYKQKAKKPPELMFVYSYEKLSINESVPSRFSPECPNSSLLNLHLHALQPEDSALYLCASSPPNEKLFFGSGTQLSVL
B1: recognises.

— US20190231821A1 (published 2019)
